Results from publication PMC7774954 (2020).
Where no end group is shown, it is not given here. The star is where a group is joined. Biotin = O=C1N[C@H]2[C@H](CS[C@H]2CCCCC(=O)*)N1; TTDS = NCCCOCCOCCOCCCNC(=O)CCC(=O)*

Tests used:
HTRA1-1 [1] = biological target: HTRA1-1 (human); experiment: FP; competitive FP with fRSK1 tracer
MAST2-1 [2] = biological target: T1, MAST2-1 (human); experiment: FP; competitive FP with fRSK1 tracer
T1 chain: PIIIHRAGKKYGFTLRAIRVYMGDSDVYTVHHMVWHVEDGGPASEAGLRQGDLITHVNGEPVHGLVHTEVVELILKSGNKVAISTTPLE

HTRA1-1 [3] = biological target: HTRA1-1 (human); experiment: FP
MAST2-1 [4] = biological target: T1, MAST2-1; experiment: FP

Chain of HTRA1-1 (human) (chain, as listed by the source): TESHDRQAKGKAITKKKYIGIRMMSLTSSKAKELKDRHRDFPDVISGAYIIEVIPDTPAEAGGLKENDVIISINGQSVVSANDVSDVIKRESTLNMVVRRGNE

| Binder | Kd (HTRA1-1 [1]) | Kd (MAST2-1 [2]) | Kd (HTRA1-1 [3]) | Kd (MAST2-1 [4]) |
| --- | --- | --- | --- | --- |
| {Biotin-TTDS}-DEDQHTQITKV [PTEN_11] | 45.1 µM | 3.14 µM |  |  |
| Fluorescein-KLPSTTL [fRSK1] |  |  | 64.8 µM | 6.87 µM |
